# From paper PMC12630360
# How the values were obtained:
# [1] = biological target: HLA class I heavy chains of HeLa/US6 cells (the H of HLA-Hβ in the BFA/temperature upshift decays) (human (endogenous in HeLa)); assay: flow cytometry on cells; BFA/temperature upshift decays: cells overnight at 25 °C, 10 μg/ml brefeldin A, then 37 °C for the indicated times; surface Hβ and fH followed with conformation-specific mAbs; half-times fitted (by hand or Solver) with a first-order in silico model
# [2] = biological target: H-2L^d heavy chain (free heavy chain, L^d-fH, when without β2m and peptide) (mouse); assay: as above
half-time of β2m dissociation (r1) at 37 °C [1],half-time of β2m dissociation (r1) at 37 °C [2],Substance
10 min,–,beta-2 microglobulin of HeLa/US6 cells (from UniProt P61769 21-119) (natural protein)
–,3 min,beta-2 microglobulin of STF1 cells (from UniProt P61769 21-119) (natural protein)
